Source: patent US6972178B1, “Drug screening using a proline-rich nuclear receptor co-regulatory protein/nuclear receptor co-expression system” (City of Hope, priority 1999, dated 2005)

Legend:
ERRα1 = biological target: T1, ERRα1 (Homo sapiens, UniProt P11474); assay: Nuclear receptor transactivation, CAT reporter in SK-BR-3 cells; assay type: cell-based
T1 construct: inserting the PCR-amplified ERRA-1 coding region into pGBT9 through an EcoRI site; expressed in transfected cells; host or cells: yeast Y187 x CG1945 diploids
T1 sequence (P11474 1-423): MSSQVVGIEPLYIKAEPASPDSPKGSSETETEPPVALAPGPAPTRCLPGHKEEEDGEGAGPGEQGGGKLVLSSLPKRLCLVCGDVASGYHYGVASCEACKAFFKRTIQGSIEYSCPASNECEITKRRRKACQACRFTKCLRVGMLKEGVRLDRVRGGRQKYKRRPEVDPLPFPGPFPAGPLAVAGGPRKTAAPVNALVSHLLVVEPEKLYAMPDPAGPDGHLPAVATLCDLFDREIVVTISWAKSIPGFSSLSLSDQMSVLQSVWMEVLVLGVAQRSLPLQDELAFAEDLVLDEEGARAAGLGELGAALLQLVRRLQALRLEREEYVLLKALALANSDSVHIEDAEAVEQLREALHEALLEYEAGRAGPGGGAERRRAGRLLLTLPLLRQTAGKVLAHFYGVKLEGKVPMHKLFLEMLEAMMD
Description: (§1) To examine the possible biological significance of this interaction, the entire PNRC coding region was inserted into a mammalian expression vector, pSG5, and this expression plasmid was used to transiently transfect SK-BR-3 cells along with a reporter plasmid, pUMS 1.3CAT-(SF1site)3, which contains three copies of extended steroid hormone half binding site from the human aromatase gene (5′-CCAAGGTCAGAA-3′ (SEQ ID NO:3)), promoter 1.3 of the human aromatase gene, and the CAT reporter gene, along with a second expression plasmid for either SF1 (pSG5-SF1) or ERRα1 (pSG5-ERRα1) (Yang et al., 1998).
(§2) Plasmid for overexpression of PNRC in mammalian cells was made by inserting PCR-amplified fragment with BclI at both ends into the BamHI site in pSG5 vector (Stratagene). To construct mammalian expression plasmids for bovine SF1 and human ERRα1, named pSG5-bSF1 and pSGS-hERRα1, the coding regions for SF1 and ERRα1 were amplified by PCR with an EcoRI site at both ends, and inserted into an EcoRI site of the pSG5 vector. The CAT reporter plasmid, pUMS1.3CAT-(SF1site)3, was prepared by inserting 3 copies of SF1 binding site from human aromatase gene, 5′-CCAAGGTCAGAA-3′ (SEQ ID NO:3), into pUMS-64/+5CAT (Zhou and Chen, 1999) through a HindIII site. […]

SF1 [1] = biological target: T2, SF1 (Bos taurus, UniProt Q04752); assay: Mammalian two-hybrid assay in SK-BR-3 cells (CAT reporter); assay type: cell-based, bovine; set-up: expressed in transfected cells; host or cells: SK-BR-3; conditions: pM-SF1 + pVP16-PNRC + pG5CAT
T2 sequence (Q04752 whole entry, the tested form may be a part): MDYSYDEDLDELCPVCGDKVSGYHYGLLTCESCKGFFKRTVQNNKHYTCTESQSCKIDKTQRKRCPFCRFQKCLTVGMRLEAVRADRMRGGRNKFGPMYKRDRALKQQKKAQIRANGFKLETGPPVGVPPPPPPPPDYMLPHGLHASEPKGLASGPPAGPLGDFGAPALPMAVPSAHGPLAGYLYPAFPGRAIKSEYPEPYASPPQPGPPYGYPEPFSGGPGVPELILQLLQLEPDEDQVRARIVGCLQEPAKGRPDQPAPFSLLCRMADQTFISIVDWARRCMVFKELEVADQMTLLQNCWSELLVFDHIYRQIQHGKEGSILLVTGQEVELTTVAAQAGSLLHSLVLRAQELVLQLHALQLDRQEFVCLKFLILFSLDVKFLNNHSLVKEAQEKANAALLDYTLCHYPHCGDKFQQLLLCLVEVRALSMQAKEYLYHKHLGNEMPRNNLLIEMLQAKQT
Protocol: The Mammalian MatchMaker two-hybrid assay system (Clontech) was used to confirm the interaction between PNRC and SF1 that was identified in the yeast assays. Because the assays are performed in mammalian cells, proteins are more likely to be in their native conformations, and the results are therefore more likely to represent biologically significant interactions. SK-BR-3 breast cancer cells were cotransfected with three expression plasmids, including pM-SF1 for Gal4 DNA-DB/SF1 fusion protein, pVP16-PNRC for VP16AD-PNRC fusion protein, and a third vector, pG5CAT, to provide the Gal4 DNA-binding site, a promoter, and the CAT reporter gene.
A set of plasmids, named pM-SF1, pVP16-PNRC, pVP16-PNRC270-327, and pVP16-PNRC278-300, for mammalian two-hybrid assays were prepared as follows: SF1 cDNA fragment was excised from pGBT9-SF1 and inserted in frame into Gal4 DNA-binding domain vector pM (Clontech) through an EcoRI site. PCR was used to generate PNRC full length coding region as well as the above mentioned deleted fragments with BclI at both ends. The PCR products were digested with BclI and inserted in proper reading frame into a pVP16 activation domain vector (Clontech) at a BamHI site. Mammalian two-hybrid assays in SK-BR-3 cells were performed according to the procedures described in the Clontech protocol (PT3002-1).

SF1 [2] = biological target: T2, SF1; assay: Nuclear receptor transactivation, CAT reporter in SK-BR-3 cells; assay type: cell-based, bovine; set-up: The coding region for the wild type bovine SF1 was first subcloned into a yeast expression vector, pGBT9; expressed in transfected cells; host or cells: yeast (Y187, or Y187 x CG1945 diploids)
Description: as §1, §2

Substance: PNRC: proline-rich nuclear receptor co-regulatory protein, 327 aa, SEQ ID NO:8, nuclear receptor coactivator
- effect on ERRα1-stimulated transcription by promoter 1.3 of the human aromatase gene (ERRα1): enhanced both SF1-stimulated and ERRα1-stimulated transcription
- CAT activity relative to cells transfected with only CAT reporter plasmid (SF1 [1]): 5-6 fold
- effect on SF1-stimulated transcription by promoter 1.3 of the human aromatase gene (SF1 [2]): enhanced both SF1-stimulated and ERRα1-stimulated transcription
